Assay results taken from patent publication US20010016352, “NUCLEIC ACID SEQUENCES CONTROLLING LUNG CELL-SPECIFIC GENE EXPRESSION” (published 2001).

Assays:
TTF-1 full length = target: T1, TTF-1 full length (UniProt P23441); experiment: cell_activity; details: SV40-P F + pCMV-TTF-1 in H441, relative to SV40-P =1 (3.5 without TTF-1)
T1 sequence: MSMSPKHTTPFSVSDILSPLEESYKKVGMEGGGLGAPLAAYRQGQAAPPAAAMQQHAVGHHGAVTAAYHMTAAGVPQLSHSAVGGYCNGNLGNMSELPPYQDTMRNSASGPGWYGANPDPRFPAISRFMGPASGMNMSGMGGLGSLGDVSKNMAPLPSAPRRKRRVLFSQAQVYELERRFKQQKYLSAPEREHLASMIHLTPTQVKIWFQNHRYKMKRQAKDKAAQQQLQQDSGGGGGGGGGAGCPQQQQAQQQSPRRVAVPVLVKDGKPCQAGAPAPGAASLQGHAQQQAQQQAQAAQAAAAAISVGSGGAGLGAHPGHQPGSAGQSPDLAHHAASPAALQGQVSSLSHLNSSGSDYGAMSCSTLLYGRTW

[1] = target: T2, TTF-1 homeodomain (TTF-1 HD) (Rattus norvegicus, UniProt P23441 P23441:161-220); experiment: EMSA; details: tags: bacterially expressed homeodomain fragment; label: 32P
T2 sequence: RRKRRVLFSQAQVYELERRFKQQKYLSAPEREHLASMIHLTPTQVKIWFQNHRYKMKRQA

[2] = target: T2, TTF-1 homeodomain (TTF-1 HD); experiment: EMSA; two complexes A' and B'; on ice, 5 mM MgCl2; details: tags: bacterially expressed homeodomain fragment; label: 32P
Experimental: The electrophoretic mobility shift assay (EMSA) was adapted from Hennighausen and Lubon, Meth. Enzymol., Vol. 152, pgs. 727-735 (1987). Briefly, nuclear extract (1-2 μl) and, when indicated, unlabeled oligonucleotide competitor DNA were preincubated in 20 μl Buffer C (12 mM HEPES, pH 7.9; 4 mM Tris-Cl pH 7.9; 25 mM KCl; 5 mM MgCl₂; 1 mM EDTA; 1 mM DTT; 50 ng μl⁻¹ poly[d(I-C)], Boehringer Mannheim; 0.2 mM fresh PMSF) for 10 minutes on ice. Probe (100,000 dpm) was added and incubated an additional 20 minutes on ice. For antibody supershift and interference assays, 1 μl of antibody was added after the addition of probe and incubated an additional 20 minutes on ice. TTF-1 antibody is described in Lazzaro et al., Development, Vol. 113, pgs. 1093-1104 (1991). HNF-3α, β, and γ antibodies were kindly provided by Dr. J. E. Darnell, Jr. (Lai et al., Genes and Devel., Vol. 5, pgs. 416-427 (1991)). Recombinant, bacterially expressed TTF-1 homeodomain protein (TTF-1 HD) is described in Guazzi et al., EMBO J., Vol. 9, pgs. 3631-3639 (1990). Assays were performed using 1 μl TTF-1 HD in place of nuclear extract. Bound and free probe were resolved using non-denaturing polyacrylamide gel electrophoresis. […]

CAGGGCTTGCCCTGGGTTAAGAGCCAGGCAGGAAGCTCTCAAGAGCATTGCTCAGAGGGGGCCTGGGTGGCCCAGGGAGGGGATGCGAGGGGAACACCCAGGC (double strand) [hSP-B -439/-331 enhancer]
activity (TTF-1 full length): 8.3 fold

B1: Ba wild type (dsDNA)
DNA 1: CAGGGCTTGCCCTGGGTTAAGAGCCAGGCA
DNA 2: TGCCTGGCTCTTAACCCAGGGCAAGCCCTG
binding result [1]: binds

B2: SPB-f1 (dsDNA)
DNA 1: AGCACCTGGAGGGCTCTTCAGAGC
DNA 2: GCTCTGAAGAGCCCTCCAGGTGCT
binding result [2]: binds
